For one data set, the target named is T1, SIP2 D1 (Plasmodium falciparum, UniProt C6KSN9 177-235).
T1 sequence: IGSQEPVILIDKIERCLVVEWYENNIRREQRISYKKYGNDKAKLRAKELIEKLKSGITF
The data set can be described thus: gcPBM; about 25 ug protein; PBS, 1% milk, 0.2 mg/ml BSA, salmon testes DNA, 0.03% Triton X-100. The note with it: tags: N-terminal GST (pGEX-4T-1), kept; label: surface-attached array probe.

A further data set has as its target T2, HDP1 homeodomain-like (Plasmodium falciparum, UniProt Q8IKH4 2990-3078).
T2 sequence: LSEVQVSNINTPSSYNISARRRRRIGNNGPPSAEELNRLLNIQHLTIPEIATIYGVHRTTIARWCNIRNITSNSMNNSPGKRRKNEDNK
The data set is described as above. The note with it: tags: N-terminal GST (pGEX-4T-1), kept; chain copies: 2; label: surface-attached array probe.

B1: GTGCAC_site10117 (dsDNA)
DNA 1: AATAACTATATATGTGTGCACAAAAATTTGACATAA
DNA 2: TTATGTCAAATTTTTGTGCACACATATATAGTTATT
Take B1: the binding signal is 9.72 ln median PBM intensity, better of two orientations with SIP2 D1 and 11.2 ln median PBM intensity, better of two orientations in the data set with HDP1 homeodomain-like.

B2: GTGCAC_negctrl_site17 (dsDNA)
DNA 1: TTTTTTTTTTTTTTTTTTTTCTTCATTTAATTTATA
DNA 2: TATAAATTAAATGAAGAAAAAAAAAAAAAAAAAAAA
For the molecule B2, in the data set with HDP1 homeodomain-like, the binding signal is 6.26 ln median PBM intensity, better of two orientations.

B3: GTGCAC_site10622 (dsDNA)
DNA 1: TATTATTCAAAATTTGTGCACAAAATTAAAGGAACA
DNA 2: TGTTCCTTTAATTTTGTGCACAAATTTTGAATAATA
With B3, the binding signal in the data set with SIP2 D1 is 8.92 ln median PBM intensity, better of two orientations; with HDP1 homeodomain-like, 11.1 ln median PBM intensity, better of two orientations.

B4: GTGCAC_site9510 (dsDNA)
DNA 1: TGTTTATTTATTTGTGTGCACTCAGATTATATTATA
DNA 2: TATAATATAATCTGAGTGCACACAAATAAATAAACA
Regarding B4, the binding signal in the data set with SIP2 D1 was 10.1 ln median PBM intensity, better of two orientations; in the data set with HDP1 homeodomain-like, 11.3 ln median PBM intensity, better of two orientations.

B5: GTGCAC_site9580 (dsDNA)
DNA 1: ATTTTTATTTTTTTTGTGCACATTTTCATTTTCTAT
DNA 2: ATAGAAAATGAAAATGTGCACAAAAAAAATAAAAAT
B5: the binding signal with SIP2 D1 is 9.53 ln median PBM intensity, better of two orientations; with HDP1 homeodomain-like it was 11.3 ln median PBM intensity, better of two orientations.

B6: GTGCAC_negctrl_site213 (dsDNA)
DNA 1: TTTAATCAATGATTTAATGAAAAAAGCAAAAAAAAA
DNA 2: TTTTTTTTTGCTTTTTTCATTAAATCATTGATTAAA
As to B6, the binding signal with HDP1 homeodomain-like is 6.34 ln median PBM intensity, better of two orientations.

B7: GTGCAC_negctrl_site681 (dsDNA)
DNA 1: AAAGGTAAATGTAAATAAATAAATAATAAATATATA
DNA 2: TATATATTTATTATTTATTTATTTACATTTACCTTT
For B7, in the data set with HDP1 homeodomain-like, the binding signal was 6.27 ln median PBM intensity, better of two orientations.

B8: GTGCAC_negctrl_site532 (dsDNA)
DNA 1: AATAATTTTTAAATATAAACATTTTTTTTTTTTTTT
DNA 2: AAAAAAAAAAAAAAATGTTTATATTTAAAAATTATT
Consider B8, for which the binding signal with HDP1 homeodomain-like is 6.29 ln median PBM intensity, better of two orientations.

B9: GTGCAC_negctrl_site549 (dsDNA)
DNA 1: TTTTTTATAGTACATTACCAAAAAAAAAAAAAAAAA
DNA 2: TTTTTTTTTTTTTTTTTGGTAATGTACTATAAAAAA
B9: the binding signal in the data set with HDP1 homeodomain-like was 6.26 ln median PBM intensity, better of two orientations.

B10: GTGCAC_site10773 (dsDNA)
DNA 1: TATATATATATAATTGTGCACATAATTTTAAACCAA
DNA 2: TTGGTTTAAAATTATGTGCACAATTATATATATATA
For B10, the binding signal with SIP2 D1 was 9.89 ln median PBM intensity, better of two orientations; with HDP1 homeodomain-like it was 11.1 ln median PBM intensity, better of two orientations.

B11: GTGCAC_site10365 (dsDNA)
DNA 1: TTTCAATTTATCAGTGTGCACAAAAATAAAATAAAA
DNA 2: TTTTATTTTATTTTTGTGCACACTGATAAATTGAAA
On to B11, for which the binding signal was 10.1 ln median PBM intensity, better of two orientations with SIP2 D1 and 11.4 ln median PBM intensity, better of two orientations in the data set with HDP1 homeodomain-like.

B12: GTGCAC_site10155 (dsDNA)
DNA 1: TTGATAAAATCACTGGTGCATGTAGATATATAATAT
DNA 2: ATATTATATATCTACATGCACCAGTGATTTTATCAA
In the case of B12, the binding signal with SIP2 D1 was 9.7 ln median PBM intensity, better of two orientations; with HDP1 homeodomain-like, 9.06 ln median PBM intensity, better of two orientations.

B13: GTGCAC_negctrl_site348 (dsDNA)
DNA 1: AAAATAAAAGAATAAAAATATGAAACTTTTTTAAAA
DNA 2: TTTTAAAAAAGTTTCATATTTTTATTCTTTTATTTT
With B13, the binding signal in the data set with SIP2 D1 was 6.41 ln median PBM intensity, better of two orientations; in the data set with HDP1 homeodomain-like it was 5.89 ln median PBM intensity, better of two orientations.

B14: GTGCAC_negctrl_site448 (dsDNA)
DNA 1: TCTTTTTAAATTACTATAATACATTCATAAATTATA
DNA 2: TATAATTTATGAATGTATTATAGTAATTTAAAAAGA
As for B14, the binding signal with HDP1 homeodomain-like is 6.3 ln median PBM intensity, better of two orientations.

B15: GTGCAC_site10686 (dsDNA)
DNA 1: TATCCATTTCTTTATGTGCACATTAAATATATTTGT
DNA 2: ACAAATATATTTAATGTGCACATAAAGAAATGGATA
Take B15: the binding signal is 8.89 ln median PBM intensity, better of two orientations with SIP2 D1 and 11.4 ln median PBM intensity, better of two orientations with HDP1 homeodomain-like.

B16: GTGCAC_site10721 (dsDNA)
DNA 1: ATATTATATCTAATCGTGCACAACTGTACATTTGTC
DNA 2: GACAAATGTACAGTTGTGCACGATTAGATATAATAT
Take B16: the binding signal with SIP2 D1 is 9.08 ln median PBM intensity, better of two orientations; with HDP1 homeodomain-like, 9.73 ln median PBM intensity, better of two orientations.

B17: GTGCAC_site9953 (dsDNA)
DNA 1: ATATATCTTTATATAGTGCATTAAATATGTTGTAAT
DNA 2: ATTACAACATATTTAATGCACTATATAAAGATATAT
As to B17, the binding signal was 8.47 ln median PBM intensity, better of two orientations with SIP2 D1 and 8.99 ln median PBM intensity, better of two orientations in the data set with HDP1 homeodomain-like.

B18: GTGCAC_negctrl_site596 (dsDNA)
DNA 1: TTTTTTATTTTATTTTATTTTTATTTTTTTTTTTTT
DNA 2: AAAAAAAAAAAAATAAAAATAAAATAAAATAAAAAA
In the case of B18, the binding signal with HDP1 homeodomain-like was 6.26 ln median PBM intensity, better of two orientations.

B19: GTGCAC_negctrl_site655 (dsDNA)
DNA 1: TCTTTTAACAAATAATAAGCTAATTTATATTATTAT
DNA 2: ATAATAATATAAATTAGCTTATTATTTGTTAAAAGA
Take B19: the binding signal with HDP1 homeodomain-like was 6.28 ln median PBM intensity, better of two orientations.

B20: GTGCAC_negctrl_site533 (dsDNA)
DNA 1: AAATTAATAAATATTTTTATAAATTATAATATTAAT
DNA 2: ATTAATATTATAATTTATAAAAATATTTATTAATTT
As for B20, the binding signal was 6.52 ln median PBM intensity, better of two orientations with SIP2 D1 and 5.92 ln median PBM intensity, better of two orientations with HDP1 homeodomain-like.

B21: GTGCAC_negctrl_site640 (dsDNA)
DNA 1: AGAAATATGTTGAAGCATTTATAATGTAGATATAAG
DNA 2: CTTATATCTACATTATAAATGCTTCAACATATTTCT
B21: the binding signal with HDP1 homeodomain-like was 6.35 ln median PBM intensity, better of two orientations.

B22: GTGCAC_negctrl_site275 (dsDNA)
DNA 1: ATATTTTATCATGTTTAATATTTATGTGGACATAAA
DNA 2: TTTATGTCCACATAAATATTAAACATGATAAAATAT
Regarding B22, in the data set with HDP1 homeodomain-like, the binding signal was 6.34 ln median PBM intensity, better of two orientations.

B23: GTGCAC_negctrl_site521 (dsDNA)
DNA 1: AGTGGAATGTATGATTTTCATTCCTTAAAATTTTAA
DNA 2: TTAAAATTTTAAGGAATGAAAATCATACATTCCACT
B23: the binding signal was 6.55 ln median PBM intensity, better of two orientations with SIP2 D1 and 5.94 ln median PBM intensity, better of two orientations with HDP1 homeodomain-like.

B24: GTGCAC_negctrl_site551 (dsDNA)
DNA 1: AAAAGGAATATAATCATTCAAAAATATAATATATAT
DNA 2: ATATATATTATATTTTTGAATGATTATATTCCTTTT
In the case of B24, the binding signal with HDP1 homeodomain-like was 6.36 ln median PBM intensity, better of two orientations.

B25: GTGCAC_negctrl_site507 (dsDNA)
DNA 1: ATGTTGTTCATAAATATATTATTTTTAAATGTACAA
DNA 2: TTGTACATTTAAAAATAATATATTTATGAACAACAT
B25: the binding signal with HDP1 homeodomain-like is 6.37 ln median PBM intensity, better of two orientations.

B26: GTGCAC_negctrl_site354 (dsDNA)
DNA 1: ATAAATTGAAGTAAATTTGACCTTTTTTTTTTTTTT
DNA 2: AAAAAAAAAAAAAAGGTCAAATTTACTTCAATTTAT
As to B26, in the data set with HDP1 homeodomain-like, the binding signal is 6.29 ln median PBM intensity, better of two orientations.

B27: GTGCAC_negctrl_site636 (dsDNA)
DNA 1: TTTTGTTGAAAAAAAAAAAAAAAATTAAATTAAATT
DNA 2: AATTTAATTTAATTTTTTTTTTTTTTTTCAACAAAA
Take B27: the binding signal with SIP2 D1 was 6.63 ln median PBM intensity, better of two orientations; in the data set with HDP1 homeodomain-like it was 5.87 ln median PBM intensity, better of two orientations.

B28: GTGCAC_negctrl_site310 (dsDNA)
DNA 1: TTACTAAAAATTATTAATAAATAATAATTATAAATT
DNA 2: AATTTATAATTATTATTTATTAATAATTTTTAGTAA
With B28, the binding signal is 6.58 ln median PBM intensity, better of two orientations in the data set with SIP2 D1 and 5.75 ln median PBM intensity, better of two orientations with HDP1 homeodomain-like.

B29: GTGCAC_site9776 (dsDNA)
DNA 1: TTTATATATTTTGTCGTGCACATTTGGAAAATTACA
DNA 2: TGTAATTTTCCAAATGTGCACGACAAAATATATAAA
B29: the binding signal with SIP2 D1 is 9.81 ln median PBM intensity, better of two orientations; in the data set with HDP1 homeodomain-like it was 8.92 ln median PBM intensity, better of two orientations.

B30: GTGCAC_negctrl_site358 (dsDNA)
DNA 1: TACTGTATTATAATTATGATTGACGAAATTAAAAAT
DNA 2: ATTTTTAATTTCGTCAATCATAATTATAATACAGTA
Turning to B30, the binding signal with HDP1 homeodomain-like is 6.33 ln median PBM intensity, better of two orientations.

B31: GTGCAC_site9562 (dsDNA)
DNA 1: ACATTTAAATAATATGTGCACAGCTATATTTTCTTT
DNA 2: AAAGAAAATATAGCTGTGCACATATTATTTAAATGT
For the molecule B31, the binding signal is 9.19 ln median PBM intensity, better of two orientations with SIP2 D1 and 10.9 ln median PBM intensity, better of two orientations in the data set with HDP1 homeodomain-like.

B32: GTGCAC_negctrl_site486 (dsDNA)
DNA 1: TATTTATTATGATACTCATATTATTCTATGATTAAA
DNA 2: TTTAATCATAGAATAATATGAGTATCATAATAAATA
In the case of B32, in the data set with HDP1 homeodomain-like, the binding signal was 6.33 ln median PBM intensity, better of two orientations.

B33: GTGCAC_negctrl_site541 (dsDNA)
DNA 1: TCCCCCTTTTTTTGATTTTTATCTTAATTCTAAAAG
DNA 2: CTTTTAGAATTAAGATAAAAATCAAAAAAAGGGGGA
In the case of B33, the binding signal with HDP1 homeodomain-like is 6.28 ln median PBM intensity, better of two orientations.

B34: GTGCAC_negctrl_site465 (dsDNA)
DNA 1: AAAAAATGTAAATATAAACAACCAAAGGGGGTATAC
DNA 2: GTATACCCCCTTTGGTTGTTTATATTTACATTTTTT
Consider B34, for which, in the data set with HDP1 homeodomain-like, the binding signal was 6.37 ln median PBM intensity, better of two orientations.

B35: GTGCAC_negctrl_site362 (dsDNA)
DNA 1: TATTATATCTTATATGTATATTCCCACAAATTATAT
DNA 2: ATATAATTTGTGGGAATATACATATAAGATATAATA
Take B35: the binding signal with HDP1 homeodomain-like is 6.31 ln median PBM intensity, better of two orientations.

B36: GTGCAC_site10129 (dsDNA)
DNA 1: GCATATGTATATAATGTGCACATGGATTATATAAAA
DNA 2: TTTTATATAATCCATGTGCACATTATATACATATGC
For the molecule B36, the binding signal was 9.12 ln median PBM intensity, better of two orientations with SIP2 D1 and 11.2 ln median PBM intensity, better of two orientations with HDP1 homeodomain-like.
